Source: patent US8748480B2, “Methods for treating opioid tolerance” (priority 2005, dated 2014)

What was measured:
Format in all cases: binding
Gβ1γ2 Tyr145Ala = target: T1, Gβ1γ2 Tyr145Ala (Rattus norvegicus, UniProt P54311, Y145A); assay: Phage ELISA, b-βγ mutant Tyr145Ala; details: alanine-substituted Tyr145, N-Terminal Interface; mean ± SD
T1 construct: made in house; host or cells: Sf9 insect cells (baculovirus)
Excerpt: (§1) Wild-type Gβ1 and Gβ1 mutants were made in the baculovirus vector PDW464 which encodes a biotinylation site at a lysine upstream of the amino terminus of Gβ1 (Goubaeva, et al. (2003) supra). Mutants were generated by overlap extension PCR using standard protocols. The wild-type and mutant Gβ1 constructs consisted of a 20 amino acid biotin acceptor peptide (BAP) sequence fused in-frame with the amino-terminus of rat Gβ1 subunit. When coexpressed with biotin holoenzyme synthetase (BirA) in Sf9 cells, the Gβ1 subunit becomes covalently biotinylated in vivo at the Specific lysine acceptor residue in the BAP. Using this approach, 1-2 mg protein of purified protein can be obtained per liter of Sf9 insect cells. As 45 ng of protein is used in the phage ELISA assay, a single purification is sufficient for 10,000 to 30,000 binding assays.
(§2) Phage ELISA assays used to assess peptide binding to wild-type and mutant b-βγ were performed according to standard methods (Smrcka and Scott (2002) Methods Enzymol. 344:557-76). Briefly, 1 μg streptavidin was immobilized in the well of a […] overnight at 4° C. The wells were blocked with 100 μL of 2% bovine serum albumin (BSA) in Tris-buffered saline (TBS) for 1 hour at 4° C. followed by three washes of 1×TBS/0.5% TWEEN®. Forty μL of 25 nM bGβ1γ2 in TBS/0.5% TWEEN® was added to each well and incubated at 4° C. for 1.5 hour. The wells were washed, followed by the addition of 1×10^6 to 1×10^10 phage particles and incubated at 4° C. for 3 hours. The wells were then washed six times with TBS/0.5% TWEEN® followed by addition of 40 μL of 1:5000 dilution of anti-M13 antibody (Pharmacia, Uppsala, Sweden) and incubated at room temperature for 1 hour. The wells were washed, followed by the addition of 40 μL of (2,2′-Azino-bis(3-ethylbenzthiazoline)-6-sulfonic acid (ABTS) and the colorimetric reaction was monitored at 405 nm. Non-specific binding was subtracted for each reading.
(§3) Both assays were then carried out with Gβ1γ2 heterodimers containing mutations in the Gβ1 subunit.
(§4) The nine peptides were selected to represent the different consensus groups of peptides previously identified (See Scott et al. (2001) supra; Table 9) and to compare binding characteristics within and between consensus groups. […] As disclosed herein, the binding signal obtained in the ELISA assay was correlated to a loss in affinity by comparing the results to behavior of the peptide in a solution based assay. […] For the purposes of present disclosure, any substitution that decreased the binding to less than 20% of the wild-type binding was considered to be a critical binding contact for that peptide.

Gβ1γ2 Arg314Ala = target: T2, Gβ1γ2 Arg314Ala (Rattus norvegicus, UniProt P54311, R314A); assay: Phage ELISA, b-βγ mutant Arg314Ala; details: alanine-substituted Arg314, Indirect; mean ± SD
T2 construct: made in house; host or cells: Sf9 insect cells (baculovirus)
T2 sequence (P54311 whole entry R314A): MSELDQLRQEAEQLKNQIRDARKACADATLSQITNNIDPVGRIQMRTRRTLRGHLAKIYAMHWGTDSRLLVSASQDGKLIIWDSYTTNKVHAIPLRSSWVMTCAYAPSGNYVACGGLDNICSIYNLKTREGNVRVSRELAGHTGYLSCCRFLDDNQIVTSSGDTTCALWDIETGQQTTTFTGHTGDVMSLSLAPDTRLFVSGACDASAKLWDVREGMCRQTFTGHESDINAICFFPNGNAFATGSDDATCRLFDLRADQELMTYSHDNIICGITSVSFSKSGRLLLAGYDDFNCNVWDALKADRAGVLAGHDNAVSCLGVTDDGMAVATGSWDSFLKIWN
T2 sequence (P63212 2-68 partner limits assumed): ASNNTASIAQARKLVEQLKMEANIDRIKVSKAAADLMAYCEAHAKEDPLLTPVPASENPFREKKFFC
Excerpt: as §1, §2, §3, §4

Gβ1γ2 Met101Ala = target: T3, Gβ1γ2 Met101Ala (Rattus norvegicus, UniProt P54311, M101A); assay: Phage ELISA, b-βγ mutant Met101Ala; details: alanine-substituted Met101, C-Terminal Interface; mean ± SD
T3 construct: made in house; host or cells: Sf9 insect cells (baculovirus)
T3 sequence (P54311 whole entry M101A): as the sequence (P54311 whole entry R314A) above, with M101A, A314R counted along it
T3 sequence (P63212 2-68 partner limits assumed): as the sequence (P63212 2-68 partner limits assumed) above
Excerpt: as §1, §2, §3, §4

Gβ1γ2 His311Ala = target: T4, Gβ1γ2 His311Ala (Rattus norvegicus, UniProt P54311, H311A); assay: Phage ELISA, b-βγ mutant His311Ala; details: alanine-substituted His311, Indirect; mean ± SD
T4 construct: made in house; host or cells: Sf9 insect cells (baculovirus)
T4 sequence (P54311 whole entry H311A): as the sequence (P54311 whole entry R314A) above, with H311A, A314R counted along it
T4 sequence (P63212 2-68 partner limits assumed): as the sequence (P63212 2-68 partner limits assumed) above
Excerpt: as §1, §2, §3, §4

Gβ1γ2 Asp186Ala = target: T5, Gβ1γ2 Asp186Ala (Rattus norvegicus, UniProt P54311, D186A); assay: Phage ELISA, b-βγ mutant Asp186Ala; details: alanine-substituted Asp186, N-Terminal Interface; mean ± SD
T5 construct: made in house; host or cells: Sf9 insect cells (baculovirus)
T5 sequence (P54311 whole entry D186A): as the sequence (P54311 whole entry R314A) above, with D186A, A314R counted along it
T5 sequence (P63212 2-68 partner limits assumed): as the sequence (P63212 2-68 partner limits assumed) above
Excerpt: as §1, §2, §3, §4

Gβ1γ2 Leu117Ala = target: T6, Gβ1γ2 Leu117Ala (Rattus norvegicus, UniProt P54311, L117A); assay: Phage ELISA, b-βγ mutant Leu117Ala; details: alanine-substituted Leu117, C-Terminal Interface; mean ± SD
T6 construct: made in house; host or cells: Sf9 insect cells (baculovirus)
T6 sequence (P54311 whole entry L117A): as the sequence (P54311 whole entry R314A) above, with L117A, A314R counted along it
T6 sequence (P63212 2-68 partner limits assumed): as the sequence (P63212 2-68 partner limits assumed) above
Excerpt: as §1, §2, §3, §4

Gβ1γ2 Asn230Ala = target: T7, Gβ1γ2 Asn230Ala (Rattus norvegicus, UniProt P54311, N230A); assay: Phage ELISA, b-βγ mutant Asn230Ala; details: alanine-substituted Asn230, N-Terminal Interface; mean ± SD
T7 construct: made in house; host or cells: Sf9 insect cells (baculovirus)
T7 sequence (P54311 whole entry N230A): as the sequence (P54311 whole entry R314A) above, with N230A, A314R counted along it
T7 sequence (P63212 2-68 partner limits assumed): as the sequence (P63212 2-68 partner limits assumed) above
Excerpt: as §1, §2, §3, §4

Gβ1γ2 Tyr59Ala = target: T8, Gβ1γ2 Tyr59Ala (Rattus norvegicus, UniProt P54311, Y59A); assay: Phage ELISA, b-βγ mutant Tyr59Ala; details: alanine-substituted Tyr59, C-Terminal Interface; mean ± SD
T8 construct: made in house; host or cells: Sf9 insect cells (baculovirus)
T8 sequence (P54311 whole entry Y59A): as the sequence (P54311 whole entry R314A) above, with Y59A, A314R counted along it
T8 sequence (P63212 2-68 partner limits assumed): as the sequence (P63212 2-68 partner limits assumed) above
Excerpt: as §1, with “BAP.” for “BAP. Using this approach, 1-2 mg protein of purified protein can be obtained per liter of Sf9 insect cells. As 45 ng of protein is used in the phage ELISA assay, a single purification is sufficient for 10,000 to 30,000 binding assays.”
as §2, with “Forty μL of 25 nM bGβ1γ2 in TBS/0.5% TWEEN® was added to each well and incubated at 4° C. for 1.5 hour.” left out
as §3
The nine peptides were selected to represent the different consensus groups of peptides previously identified (See Scott et al. (2001) supra; Table 9) and to compare binding characteristics within and between consensus groups. […] For the purposes of present disclosure, any substitution that decreased the binding to less than 20% of the wild-type binding was considered to be a critical binding contact for that peptide.

Gβ1γ2 Asp246Ser = target: T9, Gβ1γ2 Asp246Ser (Rattus norvegicus, UniProt P54311, D246S); assay: Phage ELISA, b-βγ mutant Asp246Ser; details: Asp246 mutant (Asp246Ser), N-Terminal Interface; mean ± SD
T9 construct: made in house; host or cells: Sf9 insect cells (baculovirus)
T9 sequence (P54311 whole entry D246S): as the sequence (P54311 whole entry R314A) above, with D246S, A314R counted along it
T9 sequence (P63212 2-68 partner limits assumed): as the sequence (P63212 2-68 partner limits assumed) above
Excerpt: as §1, §2, §3, §4

Gβ1γ2 Trp332Ala = target: T10, Gβ1γ2 Trp332Ala (Rattus norvegicus, UniProt P54311, W332A); assay: Phage ELISA, b-βγ mutant Trp332Ala; details: alanine-substituted Trp332, C-Terminal Interface; mean ± SD
T10 construct: made in house; host or cells: Sf9 insect cells (baculovirus)
T10 sequence (P54311 whole entry W332A): as the sequence (P54311 whole entry R314A) above, with A314R, W332A counted along it
T10 sequence (P63212 2-68 partner limits assumed): as the sequence (P63212 2-68 partner limits assumed) above
Excerpt: as §1, §2, §3, §4

Gβ1γ2 Met188Ala = target: T11, Gβ1γ2 Met188Ala (Rattus norvegicus, UniProt P54311, M188A); assay: Phage ELISA, b-βγ mutant Met188Ala; details: alanine-substituted Met188, Shared; mean ± SD
T11 construct: made in house; host or cells: Sf9 insect cells (baculovirus)
T11 sequence (P54311 whole entry M188A): as the sequence (P54311 whole entry R314A) above, with M188A, A314R counted along it
T11 sequence (P63212 2-68 partner limits assumed): as the sequence (P63212 2-68 partner limits assumed) above
Excerpt: as §1, §2, §3, §4

Gβ1γ2 Trp99Ala = target: T12, Gβ1γ2 Trp99Ala (Rattus norvegicus, UniProt P54311, W99A); assay: Phage ELISA, b-βγ mutant Trp99Ala; details: alanine-substituted Trp99, C-Terminal Interface; mean ± SD
T12 construct: made in house; host or cells: Sf9 insect cells (baculovirus)
T12 sequence (P54311 whole entry W99A): as the sequence (P54311 whole entry R314A) above, with W99A, A314R counted along it
T12 sequence (P63212 2-68 partner limits assumed): as the sequence (P63212 2-68 partner limits assumed) above
Excerpt: as §1, §2, §3, §4

Gβ1γ2 Lys57Ala = target: T13, Gβ1γ2 Lys57Ala (Rattus norvegicus, UniProt P54311, K57A); assay: Phage ELISA, b-βγ mutant Lys57Ala; details: alanine-substituted Lys57, C-Terminal Interface; mean ± SD
T13 construct: made in house; host or cells: Sf9 insect cells (baculovirus)
T13 sequence (P54311 whole entry K57A): as the sequence (P54311 whole entry R314A) above, with K57A, A314R counted along it
T13 sequence (P63212 2-68 partner limits assumed): as the sequence (P63212 2-68 partner limits assumed) above
Excerpt: as §1, §2, §3, §4

T1 sequence (P54311 whole entry Y145A): as the sequence (P54311 whole entry R314A) above, with Y145A, A314R counted along it
T1 sequence (P63212 2-68 partner limits assumed): as the sequence (P63212 2-68 partner limits assumed) above

Sequence	% of Wild-Type Signal, Tyr145 (Gβ1γ2 Tyr145Ala) [%]	% of Wild-Type Signal, Arg314 (Gβ1γ2 Arg314Ala) [%]	% of Wild-Type Signal, Met101 (Gβ1γ2 Met101Ala) [%]	% of Wild-Type Signal, His311 (Gβ1γ2 His311Ala) [%]	% of Wild-Type Signal, Asp186 (Gβ1γ2 Asp186Ala) [%]	% of Wild-Type Signal, Leu117 (Gβ1γ2 Leu117Ala) [%]	% of Wild-Type Signal, Asn230 (Gβ1γ2 Asn230Ala) [%]	% of Wild-Type Signal, Tyr59 (Gβ1γ2 Tyr59Ala) [%]	% of Wild-Type Signal, Asp246 (Gβ1γ2 Asp246Ser) [%]	% of Wild-Type Signal, Trp332 (Gβ1γ2 Trp332Ala) [%]	% of Wild-Type Signal, Met188 (Gβ1γ2 Met188Ala) [%]	% of Wild-Type Signal, Trp99 (Gβ1γ2 Trp99Ala) [%]	% of Wild-Type Signal, Lys57 (Gβ1γ2 Lys57Ala) [%]
SCKRTKAQILLAPCT [C1]	88.0 ± 29.9	2.8 ± 1.6	70.5 ± 35.3	3.0 ± 4.0	1.4 ± 1.7	5.2 ± 3.1	19.8 ± 12.3	0.3 ± 0.7	2.3 ± 3.0	−0.3 ± 2.5	4.0 ± 3.4	1.2 ± 2.7	0.1 ± 1.6
SIGKALFILGYPDYD [3.14]	0.8 ± 0.9	50.2 ± 5.0	26.8 ± 12.5	93.4 ± 21.5	14.4 ± 13.4	2.1 ± 2.4	22.4 ± 4.2	24.7 ± 15.2	66.5 ± 7.5	7.1 ± 3.7	2.5 ± 3.7	66.0 ± 7.7	18.6 ± 4.6
WCPPKAMTQLGIKAC [C14]	1.9 ± 5.9	3.9 ± 7.9	1.1 ± 4.9	6.1 ± 3.4	3.6 ± 1.9	3.8 ± 9.2	60.0 ± 26.5	3.6 ± 2.0	6.3 ± 13.9	1.6 ± 2.4	9.9 ± 3.8	10.1 ± 3.3	3.0 ± 5.0
WCPPKLEQWYDGCA [C2]	4.5 ± 8.1	1.3 ± 3.1	157.1 ± 51.5	11.7 ± 8.0	267.2 ± 40.6	1.5 ± 5.5	0.0 ± 3.3	−1.7 ± 4.8	5.9 ± 5.7	4.7 ± 6.2	−0.7 ± 2.5	−1.0 ± 5.1	−1.2 ± 4.5
